The target in experiment [1] is T1, R13 peptide (C-terminal epitope of T. cruzi P1α, P1β, P2α and P2β) (Trypanosoma cruzi).
T1 construct: the text prints only the motif 3-EdDDmGF-9; the peptide is also in PDB 3SGE; source: synthetic peptide
T1 chain: EEEDDDMGFGLFD
Briefly: SPR; competition on BIACORE 3000: TcP2β-GST immobilised by amine coupling at 0.05 pmol/mm2; scFv C5 pre-incubated 30 min with different concentrations of peptide, injected 2 min, 3 min dissociation, 30 µl/min; HBS-EP buffer pH 7.4, 150 mM NaCl; IC50 from the decrease in the initial linear kinetics. To be noted: both partners purified. Background: In SPR one partner is held on a chip, and binding of the other changes the refractive index at the surface.

The target of experiment [2] is T2, TcP2β-GST fusion protein (Trypanosoma cruzi ribosomal P2β protein) (Trypanosoma cruzi, strain , UniProt P26795).
T2 construct: Trypanosoma cruzi ribosomal P2β protein (TcP2β), recombinant; also called recombinant TcP2β protein
The description is as above. Conditions: both partners purified.

The target of experiment [3] is T3, P015 peptide (C-terminal region of T. cruzi P0) (Trypanosoma cruzi, UniProt P26796).
T3 construct: C-terminal region of the Trypanosoma cruzi ribosomal P0 protein (TcP0), called P015; aspartic acid in place of glycine 8 of R13; source: synthetic peptide
T3 chain: EEEDDDDDFGMGALF
Described as above. Conditions: both partners purified.

Experiment [4] concerns the target T. cruzi ribosomal P0 protein (Trypanosoma cruzi, strain  in …, UniProt P26796). The experiment in a line: cell-based or functional assay.

Sequence of T. cruzi ribosomal P0 protein (P26796 whole entry, looked up): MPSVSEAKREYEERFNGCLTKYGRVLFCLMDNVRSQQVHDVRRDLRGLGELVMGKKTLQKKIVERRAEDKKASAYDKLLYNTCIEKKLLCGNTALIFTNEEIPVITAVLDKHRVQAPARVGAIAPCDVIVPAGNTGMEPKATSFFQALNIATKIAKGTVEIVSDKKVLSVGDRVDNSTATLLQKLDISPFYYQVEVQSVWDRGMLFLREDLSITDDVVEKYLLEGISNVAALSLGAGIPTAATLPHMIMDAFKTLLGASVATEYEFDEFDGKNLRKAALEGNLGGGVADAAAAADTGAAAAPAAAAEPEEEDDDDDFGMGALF
T2 sequence (P26795 whole entry, the tested form may be a part): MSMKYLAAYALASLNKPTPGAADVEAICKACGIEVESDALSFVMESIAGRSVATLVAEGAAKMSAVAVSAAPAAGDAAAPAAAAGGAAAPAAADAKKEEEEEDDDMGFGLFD

B1: single chain recombinant antibody C5 (scFv C5) (scFv, V domains shown)
VH: EVQLEESGGRLVQPKGSLKLSCAASGFSFNTNAMNWVRQAPGKGLEWVARIRSKINNYSTYYADSVKDRFTISRDDSQSMLYLQMNNLKTEDTAMYYCVRGTTYWGQGTLVTVSA
VL: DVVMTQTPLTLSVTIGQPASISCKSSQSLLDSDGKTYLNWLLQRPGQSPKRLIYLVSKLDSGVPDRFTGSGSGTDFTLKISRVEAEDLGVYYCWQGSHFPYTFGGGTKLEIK
notes: VH of scFv C5, which derives from the parental monoclonal antibody 17.2; heavy chain variable domain of mAb 17.2 in PDB 3SGE (complex with R13) and 3SGD (apo); linker between the variable domains; VL of scFv C5, which derives from the parental monoclonal antibody 17.2; light chain variable domain of mAb 17.2 in PDB 3SGE (complex with R13) and 3SGD (apo); The His tag is known from detection with …
On to B1, for which the values for the IC50 in experiment [1] and in experiment [3] were 2370 ± 230 nM and 22.6 ± 2.03 µM, respectively. For the same molecule, the binding result in experiment [2] is given as “binds”. Further, the “inhibition of in vitro protein synthesis ([35S]-methionine incorporation) by T. cruzi ribosomes (about 130 nM), dose-response of scFv C5, IC50” value in experiment [4] was roughly 62.4 nM.

In general, IC50 refers to the concentration that gives 50% inhibition. A high value points to a need for much substance.

Values taken from PMC3343115, “Selective Blockade of Trypanosomatid Protein Synthesis by a Recombinant Antibody Anti-Trypanosoma cruzi P2β Protein” (PLoS ONE, 2012).
